According to patent publication US11739297B2, “Method of increasing tumor killing activity of macrophages or monocytes comprising chimeric antigen receptor” (Carisma Therapeutics Inc., priority 2020, dated 2023):

Key:
[1] = test system: HER2+ breast cancer cells (CRL2351); test: Cytokine secretion of interferon treated HER2 CAR macrophages in co-culture (MSD); assay type: cell-based, human; details: 150 nM CAR mRNA, E:T 3:1, 48 hours co-culture
Method: Human macrophages were electroporated with 150 nM HER2 CAR mRNA comprising m6AGCap1 and PsU modifications. HER2+ breast cancer cells (CRL2351) were co-cultured with CAR macrophages after the macrophages were transfected with the CAR mRNA at an Effector (CAR macrophage) to Target (cancer cell) ratio of 3:1. Supernatant was collected 48 hours after the cancer cells and macrophages were co-cultured and cytokine levels were measured using a Meso Scale Discovery (MSD) instrument.

human macrophages [2] = test: Viability, CAR expression and M1/M2 markers of HER2 CAR mRNA electroporated macrophages cultured with cytokines; assay type: cell-based; details: mRNA transfected CAR macrophages
Method: Human macrophages were electroporated with HER2 CAR mRNA comprising m6AGCap1 and PsU modifications. Cells were cultured with cytokines that induce an M1 phenotype such as IFN-alpha, IFN-beta, IFN-gamma, IFN-gamma plus lipopolysaccharide (LPS), TNF-alpha, IL-6 or a STING ligand (STING-L) for up to 48 hours and then cytokines were washed off and fresh media was added. CAR expression and M1 marker expression were measured on days 2 and 7 after transfection. Fluorescent labeled HER2+ breast cancer cells (CRL2351) were co-cultured with HER2 CAR macrophages two days after the macrophages were transfected. Cancer cell growth was monitored via its fluorescence on an Incucyte® live imaging microscope every four hours. The Effector (CAR macrophage) to Target (cancer cell) ratio was 5:1.
Five different mRNA modifications were also tested to determine if interferon treatment differentially affected macrophages transfected with mRNA comprising different modifications. Human macrophages were electroporated with HER2 CAR mRNA comprising different mRNA modifications. CAR expression and M1 markers were detected by Flow Cytometry (Attune) on day four after electroporation. Day 4 CAR macrophage cells were then co-cultured with a Nuc-Light labeled, HER2+ breast cancer cell line (CRL2351) at an Effector (CAR macrophage) to Target (cancer cell) ratio of 5:1. Cancer cell growth was monitored via its fluorescence on an Incucyte® live imaging microscope every four hours.
Human macrophages were electroporated with 300 nM CAR mRNA comprising m6AGCap1 and PsU modifications. Cells were cultured with 20 ng/mL IFNs for 24 hours and then the cells were washed to remove cytokines. CAR expression was detected by Flow Cytometry (Attune) on day 2 after transfection. Cells were then co-cultured with a Nuc-Light labeled, HER2+ breast cancer cell line (CRL2351) at the Effector to Target ratio of 3:1. Cancer cell growth was monitored via its fluorescence on an Incucyte® live imaging microscope. CAR expression and M1 markers in macrophages were detected by Flow Cytometry (Attune) on day 7 after transfection.

[3] = test system: Her2-Zeta CAR expressing macrophages; test: M1 and M2 surface marker expression after agonist priming (flow cytometry); assay type: cell-based, human; details: mRNA transduced CAR macrophages, 3 days on agonist coated wells
Method: (§1) To generate Her2-Zeta CAR expressing macrophages, primary human macrophages were suspended in EP buffer (MaxCyte) containing 300 nM mRNA (TriLink) at a concentration of 90×10^6 cells/mL. 100 μL of cell mixture was added to an electroporation cassette (OC100×2; MaxCyte) and electroporated using the Experimental T cell 1 setting. Cells were removed from the cassette, plated in 3 mL of TexMACS media (Miltenyi Biotech) containing 20% FBS (Gibco) on UpCell plates (Thermo Scientific), and incubated overnight at 37 C and 5% CO2.
(§2) Recombinant CD40 ligand (Peprotech), 4-1BB ligand (Enzo Life Sciences), and 4-1BB receptor (Peprotech) were resuspended in molecular grade water to a stock concentration of 100 μg/mL. Stock solution was then used to create working solutions in PBS ranging from 2-0.002 μg/mL. 100 uL of working solution was added to wells in a 96-well plate and left at room temperature for 4 h.
For detection of cell surface proteins, macrophages were plated onto wells coated with agonist molecules in a final volume of 200 uL TexMACS media+10% FBS+10 ng/mL GM-CSF and incubated for 3 days at 37 C and 5% CO2. Cells were incubated in 300 μL Accutase (Sigma) for 30 min and transferred to 96-well round bottom plate for staining. Cells were incubated in FACS buffer containing 20 μg/mL Her2-His for 20 min at RT, followed by incubation in Human TruStain FcX for 10 min at RT. […]

[4] = test system: CRL-2351 cells expressing nuclear GFP; test: Tumor cell killing by macrophages primed on agonist coated plates (Incucyte); assay type: cell-based, human; details: plate-coated agonist, 3 h priming
Method: as §1, §2
Plates were removed from the incubator and left at room temperature for 30 min. Cells were detached from plate, counted using the NC-200 automated cell counter (Chemomtech), and re-suspended in TexMACS media with 10% FBS. […] Cell lysis was detected using Incucyte® analysis (Essen Bioscience). Tumor cell death was calculated by integrated GFP intensity per well relative to time 0.

human macrophages [5] = test: mCherry mRNA expression in transfected macrophages (Incucyte); assay type: cell-based; details: mCherry mRNA (m6AGCap1 and PsU or N1mPsU), one day, different doses
Method: Human macrophages were transfected with mCherry mRNA comprising m6AGCap1 and PsU or N1mPsU modifications and were then cultured for one day with different doses of IFN-γ. mCherry expression was monitored on an Incucyte® live imaging microscope.
In order to determine whether an RNaseL inhibitor could rescue IFN-γ-induced instability of transfected mRNA, human macrophages were treated with 1 μM sunitinib (an RNaseL inhibitor) two hours prior to the transfection of mCherry mRNA comprising m6AGCap1 and PsU modifications. Transfected cells were then cultured for one day with different dosages of IFN-γ. mCherry expression was monitored on an Incucyte® live imaging microscope.
The effect of another RNaseL inhibitor (RLI or ABCE1) was also tested to further validate the concept. Human macrophages were co-transfected with mRNA encoding mCherry comprising m6AGCap 1 and PsU modifications and with mRNA encoding ABCE1.

Q: Which results are given for IFN-α?
A: secretion of the cytokines IL-6, IL-8 and TNFα [1]: increased secretion; M1 phenotype (based on CD86 expression) (human macrophages [2]): induction of an M1 phenotype; M2 markers (based on CD163 expression) (human macrophages [2]): reduction of M2 markers

B1: CD40L: Recombinant CD40 ligand (Peprotech), CD40 agonist (protein, UniProt P29965 113-261, looked up)
CD40 ligand, soluble form: MQKGDQNPQIAAHVISEASSKTTSVLQWAEKGYYTMSNNLVTLENGKQLTVKRQGLYYIYAQVTFCSNREASSQAPFIASLCLKSPGRFERILLRAANTHSSAKPCGQQSIHLGGVFELQPGASVFVNVTDPSQVSHGTGFTSFGLLKL
Q: For B1, which “M1 phenotype (expression of M1 and M2 markers)” value [3] is on record?
A: induced an M1 phenotype

Q: What about the “tumor killing ability of macrophages and CAR macrophages” value [4] of the same molecule?
A: significantly improved the tumor killing ability

B2: IFN-γ: interferon cytokine that induces an M1 phenotype (protein, UniProt P01579 24-161, looked up)
Interferon gamma: QDPYVKEAENLKKYFNAGHSDVADNGTLFLGILKNWKEESDRKIMQSQIVSFYFKLFKNFKDDQSIQKSVETIKEDMNVKFFNSNKKKRDDFEKLTNYSVTDLNVQRKAIHELIQVMAELSPAAKTGKRKRSQMLFRG
Q: What does the source list for B2?
A: secretion of the cytokines IL-6, IL-8 and TNFα [1]: increased secretion; mCherry expression (human macrophages [5]): reduced mCherry mRNA expression; M1 phenotype (based on CD86 expression) (human macrophages [2]): induction of an M1 phenotype; M2 markers (based on CD163 expression) (human macrophages [2]): reduction of M2 markers
